The values below come from the supplement of paper PMC5998384.

The test system of data set [1] is HeLa Kyoto. Description: solubility in G1/S (NP-40 vs SDS abundance) (log2 ratio); higher = more soluble. As to conditions: cell cycle stage: G1/S.
For data set [2], the system named is HeLa Kyoto. Description: solubility change mitosis vs G1/S (difference of NP-40 vs SDS log2 ratios) (log2 ratio difference); higher = more soluble in mitosis.
The test system of data set [3] is HeLa Kyoto. Description: thermal stability score vs G1/S (z-score of summed log2 fold changes over temperatures); higher = more thermally stable than in G1/S.
Where [4] appears, read: cell cycle stage: early G1 (4.5 h after nocodazole release).
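For solubility change mitosis vs G1/S (difference of NP-40 vs SDS log2 ratios) in this document: synchronized HeLa Kyoto cells (double thymidine block for G1/S, nocodazole release for mitosis), protein amounts in NP-40 versus SDS lysates quantified by mass spectrometry, three biological replicates.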
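For solubility in G1/S (NP-40 vs SDS abundance) in this document: HeLa Kyoto cells arrested at G1/S by double thymidine block, proteins quantified by TMT10plex mass spectrometry in mild NP-40 versus SDS extracts, three biological replicates.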
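For thermal stability score vs G1/S (z-score of summed log2 fold changes over temperatures) in this document: synchronized HeLa Kyoto cells, proteins quantified by TMT10plex mass spectrometry, three biological replicates, mitosis taken 0.5 h after nocodazole release, G1/S directly after double thymidine block.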

As to “MKRRNADCSKLRRPLKRNRITEGIYGSTFLYLKFLVVWALVLLADFVLEFRFEYLWPFWLFIRSVYDSFRYQGLAFSVFFVCVAFTSNIICLLFIPIQWLFFAASTYVWVQYVWHTERGVCLPTVSLWILFVYIEAAIRFKDLKNFHVDLCRPFAAHCIGYPVVTLGFGFKSYVSYKMRLRKQKEVQKENEFYMQLLQQALPPEQQMLQKQEKEAEEAAKGLPDMDSSILIHHNGGIPANKKLSTTLPEIEYREKGKEKDKDAKKHNLGINNNNILQPVDSKIQEIEYMENHINSKRLNNDLVGSTENLLKEDSCTASSKNYKNASGVVNSSPRSHSATNGSIPSSSSKNEKKQKCTSKSPSTHKDLMENCIPNNQLSKPDALVRLEQDIKKLKADLQASRQVEQELRSQISSLSSTERGIRSEMGQLRQENELLQNKLHNAVQMKQKDKQNISQLEKKLKAEQEARSFVEKQLMEEKKRKKLEEATAARAVAFAAASRGECTETLRNRIRELEAEGKKLTMDMKVKEDQIRELELKVQELRKYKENEKDTEVLMSALSAMQDKTQHLENSLSAETRIKLDLFSALGDAKRQLEIAQGQILQKDQEIKDLKQKIAEVMAVMPSITYSAATSPLSPVSPHYSSKFVETSPSGLDPNASVYQPLKK [TMEM57]”, the “solubility in G1/S (log2)” value in the data set with HeLa Kyoto [1] was -0.363. Besides, the “solubility change mitosis (log2)” value with HeLa Kyoto [2] worked out at 0.256. Besides, the thermal stability score is -1.41 with HeLa Kyoto [3] (setting [4]) and -2.47 in the data set on HeLa Kyoto [3] (cell cycle stage: mitosis).
With “MLKKQSAGLVLWGAILFVAWNALLLLFFWTRPAPGRPPSVSALDGDPASLTREVIRLAQDAEVELERQRGLLQQIGDALSSQRGRVPTAAPPAQPRVPVTPAPAVIPILVIACDRSTVRRCLDKLLHYRPSAELFPIIVSQDCGHEETAQAIASYGSAVTHIRQPDLSSIAVPPDHRKFQGYYKIARHYRWALGQVFRQFRFPAAVVVEDDLEVAPDFFEYFRATYPLLKADPSLWCVSAWNDNGKEQMVDASRPELLYRTDFFPGLGWLLLAELWAELEPKWPKAFWDDWMRRPEQRQGRACIRPEISRTMTFGRKGVSHGQFFDQHLKFIKLNQQFVHFTQLDLSYLQREAYDRDFLARVYGAPQLQVEKVRTNDRKELGEVRVQYTGRDSFKAFAKALGVMDDLKSGVPRAGYRGIVTFQFRGRRVHLAPPLTWEGYDPSWN [MGAT1]”, in the data set on HeLa Kyoto [1], the “solubility in G1/S (log2)” value is -0.0579. Besides, the “solubility change mitosis (log2)” value in the data set on HeLa Kyoto [2] was 0.0597. Moreover, the thermal stability score in the data set with HeLa Kyoto [3] (setting [4]) was 0.289; in the data set with HeLa Kyoto [3] (cell cycle stage: mitosis), 0.0296.
For the substance “MNPIVVVHGGGAGPISKDRKERVHQGMVRAATVGYGILREGGSAVDAVEGAVVALEDDPEFNAGCGSVLNTNGEVEMDASIMDGKDLSAGAVSAVQCIANPIKLARLVMEKTPHCFLTDQGAAQFAAAMGVPEIPGEKLVTERNKKRLEKEKHEKGAQKTDCQKNLGTVGAVALDCKGNVAYATSTGGIVNKMVGRVGDSPCLGAGGYADNDIGAVSTTGHGESILKVNLARLTLFHIEQGKTVEEAADLSLGYMKSRVKGLGGLIVVSKTGDWVAKWTSTSMPWAAAKDGKLHFGIDPDDTTITDLP [ASRGL1]”, the “solubility in G1/S (log2)” value with HeLa Kyoto [1] amounted to 0.282. The “solubility change mitosis (log2)” value in the data set with HeLa Kyoto [2] is -0.207. In addition, the results for the thermal stability score with HeLa Kyoto [3] (setting [4]) and in the data set with HeLa Kyoto [3] (cell cycle stage: mitosis) were -1.89 and -2.25, respectively.
Taken in the same sequence, the figures for MPDZ were -0.0106, 0.0126, 0.637 and 0.641.
Taken in the same sequence, the figures for “MPEEAGFPPAKRFRPGSGPPSRAGSFPPGRQVVMLLTAGSGGRGGGGGRRQQPPLAQPSASPYPEAVELQRRSLPIFQARGQLLAQLRNLDNAVLIGETGSGKTTQIPQYLYEGGISRQGIIAVTQPRRVAAISLATRVSDEKRTELGKLVGYTVRFDDVTSEDTRIKFLTDGMLLREAISDSLLRKYSCVILDEAHERTIHTDVLFGVVKAAQKRRKELGKLPLKVIVMSATMDVDLFSQYFNGAPVLYLEGRQHPIQVFYTKQPQNDYLHAALVSVFQIHQEAPSSQDILVFLTGQEEIEAMSKTCRDIAKHLPDGCPAMLVLPLYASLPYAQQLRVFQGAPKGYRKVIISTNIAETSITITGIKYVVDTGMVKAKKYNPDSGLEVLAVQRVSKTQAWQRTGRAGREDSGICYRLYTEDEFEKFDKMTVPEIQRCNLASVMLQLLAMKVPNVLTFDFMSKPSPDHIQAAIAQLDLLGALEHKDDQLTLTPMGRKMAAFPLEPKFAKTILMSPKFHCTEEILTIVSLLSVDSVLHNPPSRREEVQGVRKKFISSEGDHMTLLNIYRTFKNLGGNKDWCKENFVNSKNMTLVAEVRAQLRDICLKMSMPIASSRGDVESVRRCLAHSLFMSTAELQPDGTYATTDTHQPVAIHPSSVLFHCKPACVVYTELLYTNKCYMRDLCVIDAQWLYEAAPEYFRRKLRTARN [DHX33]” were -1.03, 0.463, 0.61 and 0.974.
Taken in the same sequence, the figures for “MPGPQGGRGAATMSLGKLSPVGWVSSSQGKRRLTADMISHPLGDFRHTMHVGRGGDVFGDTSFLSNHGGSSGSTHRSPRSFLAKKLQLVRRVGAPPRRMASPPAPSPAPPAISPIIKNAISLPQLNQAAYDSLVVGKLSFDSSPTSSTDGHSSYGLDSGFCTISRLPRSEKPHDRDRDGSFPSEPGLRRSDSLLSFRLDLDLGPSLLSELLGVMSLPEAPAAETPAPAANPPAPTANPTGPAANPPATTANPPAPAANPSAPAATPTGPAANPPAPAASSTPHGHCPNGVTAGLGPVAEVKSSPVGGGPRGPAGPALGRHWGAGWDGGHHYPEMDARQERVEVLPQARASWESLDEEWRAPQAGSRTPVPSTVQANTFEFADAEEDDEVKV [CDC42EP1]” were 0.536, 0.0734, -0.817 and -1.35.
For the substance “MPLVVFCGLPYSGKSRRAEELRVALAAEGRAVYVVDDAAVLGAEDPAVYGDSAREKALRGALRASVERRLSRHDVVILDSLNYIKGFRYELYCLARAARTPLCLVYCVRPGGPIAGPQVAGANENPGRNVSVSWRPRAEEDGRAQAAGSSVLRELHTADSVVNGSAQADVPKELEREESGAAESPALVTPDSEKSAKHGSGAFYSPELLEALTLRFEAPDSRNRWDRPLFTLVGLEEPLPLAGIRSALFENRAPPPHQSTQSQPLASGSFLHQLDQVTSQVLAGLMEAQKSAVPGDLLTLPGTTEHLRFTRPLTMAELSRLRRQFISYTKMHPNNENLPQLANMFLQYLSQSLH [KTI12]”, the “solubility in G1/S (log2)” value with HeLa Kyoto [1] came out at 0.526. Moreover, in the data set on HeLa Kyoto [2], the “solubility change mitosis (log2)” value was -0.00671. The figures for the thermal stability score in the data set on HeLa Kyoto [3] (setting [4]) and in the data set with HeLa Kyoto [3] (cell cycle stage: mitosis) were -1.22 and -1.26, respectively.
Taken in the same sequence, the figures for “MPTNFTVVPVEAHADGGGDETAERTEAPGTPEGPEPERPSPGDGNPRENSPFLNNVEVEQESFFEGKNMALFEEEMDSNPMVSSLLNKLANYTNLSQGVVEHEEDEESRRREAKAPRMGTFIGVYLPCLQNILGVILFLRLTWIVGVAGVLESFLIVAMCCTCTMLTAISMSAIATNGVVPAGGSYYMISRSLGPEFGGAVGLCFYLGTTFAGAMYILGTIEIFLTYISPGAAIFQAEAAGGEAAAMLHNMRVYGTCTLVLMALVVFVGVKYVNKLALVFLACVVLSILAIYAGVIKSAFDPPDIPVCLLGNRTLSRRSFDACVKAYGIHNNSATSALWGLFCNGSQPSAACDEYFIQNNVTEIQGIPGAASGVFLENLWSTYAHAGAFVEKKGVPSVPVAEESRASALPYVLTDIAASFTLLVGIYFPSVTGIMAGSNRSGDLKDAQKSIPTGTILAIVTTSFIYLSCIVLFGACIEGVVLRDKFGEALQGNLVIGMLAWPSPWVIVIGSFFSTCGAGLQSLTGAPRLLQAIARDGIVPFLQVFGHGKANGEPTWALLLTVLICETGILIASLDSVAPILSMFFLMCYLFVNLACAVQTLLRTPNWRPRFKFYHWTLSFLGMSLCLALMFICSWYYALSAMLIAGCIYKYIEYRGAEKEWGDGIRGLSLNAARYALLRVEHGPPHTKNWRPQVLVMLNLDAEQAVKHPRLLSFTSQLKAGKGLTIVGSVLEGTYLDKHMEAQRAEENIRSLMSTEKTKGFCQLVVSSSLRDGMSHLIQSAGLGGLKHNTVLMAWPASWKQEDNPFSWKNFVDTVRDTTAAHQALLVAKNVDSFPQNQERFGGGHIDVWWIVHDGGMLMLLPFLLRQHKVWRKCRMRIFTVAQVDDNSIQMKKDLQMFLYHLRISAEVEVVEMVENDISAFTYERTLMMEQRSQMLKQMQLSKNEQEREAQLIHDRNTASHTAAAARTQAPPTPDKVQMTWTREKLIAEKYRSRDTSLSGFKDLFSMKPDQSNVRRMHTAVKLNGVVLNKSQDAQLVLLNMPGPPKNRQGDENYMEFLEVLTEGLNRVLLVRGGGREVITIYS [SLC12A7]” were -0.103, -0.0793, 0.109 and 0.0218.
Taken in the same sequence, the figures for MPV17L2 were -0.0909, -0.154, -0.139 and -0.811.
